# Assay results: publication PMC12102759
# B1: SH3BP2 peptide 408-423 (SH3 domain-binding protein 2), 16-mer library wild type / TNKS ANK (TNKS 12 ANK repeats, residues 174-649) (parent)
# chain 1: PQLPHLQRSPPDGQSF
# chain 2: TGVPAVSGALRELLEACRNGDVSRVKRLVDAANVNAKDMAGRKSSPLHFAAGFGRKDVVEHLLQMGANVHARDDGGLIPLHNACSFGHAEVVSLLLCQGADPNARDNWNYTPLHEAAIKGKIDVCIVLLQHGADPNIRNTDGKSALDLADPSAKAVLTGEYKKDELLEAARSGNEEKLMALLTPLNVNCHASDGRKSTPLHLAAGYNRVRIVQLLLQHGADVHAKDKGGLVPLHNACSYGHYEVTELLLKHGACVNAMDLWQFTPLHEAASKNRVEVCSLLLSHGADPTLVNCHGKSAVDMAPTPELRERLTYEFKGHSLLQAAREADLAKVKKTLALEIINFKQPQSHETALHCAVASLHPKRKQVTELLLRKGANVNEKNKDFMTPLHVAAERAHNDVMEVLHKHGAKMNALDTLGQTALHRAALAGHLQTCRLLLSYGSDPSIISLQGFTAAQMGNEAVQQILSESTPIRTSD
# B2: AMOTL2 peptide 66-81 (Angiomotin-like protein 2), 16-mer library wild type / TNKS ANK (TNKS 12 ANK repeats, residues 174-649) (parent)
# chain 1: LQQATRQEPQGQEHQG
# chain 2: B1 chain 2
# B3: KIAA1671 peptide 600-615 (Uncharacterized protein KIAA1671), 16-mer library wild type / MDM2 SWIB (MDM2 SWIB/MDM2 domain, residues 17-125) (parent)
# chain 1: TPEDDRSFQTVWATVF
# chain 2: SQIPASEQETLVRPKPLLLKLLKSVGAQKDTYTMKEVLFYLGQYIMTKRLYDEKQQHIVYCSNDLLGDLFGVPSFSVKEHRKIYTMIYRNLVVVNQQESSDSGTSVSEN
# Variants of: B1
# Assay: proteomic peptide phage display deep mutational scan (ProP-PD DMS): M13 P8 16-mer library selected against immobilised GST-tagged bait for four days (rounds), NGS of the eluted pools per day and pseudo-replica
# Details: with TNKS ANK (TNKS 12 ANK repeats, residues 174-649); bait immobilised on MaxiSorp plates (10 µg), library pre-cleared on GST, 2 h binding at 4 °C, five washes; one round per day, days 1-4; value from days 2 and 3; keep out of graded; scale: average fractional NGS count over selection days 2 and 3
row,screen value,Variant
1,2.19e-05,chain 1 PQLPHLQRSPSDGQSF [chain 1 P11S]
2,0,chain 1 PQLPHLQRSPQDGQSF [chain 1 P11Q]
3,0,chain 1 PQLPHLQRSPHDGQSF [chain 1 P11H]
4,3.04e-05,chain 1 PQLPHLQRSPFDGQSF [chain 1 P11F]
5,7.13e-05,chain 1 PQLPHLQRSPTDGQSF [chain 1 P11T]
6,6.04e-05,chain 1 PQGPHLQRSPPDGQSF [chain 1 L3G]
7,9.07e-05,chain 1 PQDPHLQRSPPDGQSF [chain 1 L3D]
8,5.02e-05,chain 1 PQWPHLQRSPPDGQSF [chain 1 L3W]
9,4.17e-05,chain 1 PQLPHLQRSPPDGQSK [chain 1 F16K]
10,9.92e-05,chain 1 PQLPHLQRSPPDGQSS [chain 1 F16S]
11,3.21e-05,chain 1 PQLRHLQRSPPDGQSF [chain 1 P4R]
12,5.23e-05,chain 1 PQLFHLQRSPPDGQSF [chain 1 P4F]
13,0.000103,chain 1 PQLKHLQRSPPDGQSF [chain 1 P4K]
14,0.000135,chain 1 PQLPHLRRSPPDGQSF [chain 1 Q7R]
15,0.000104,chain 1 PQLPHLNRSPPDGQSF [chain 1 Q7N]
16,3e-05,chain 1 PQLPHLPRSPPDGQSF [chain 1 Q7P]
17,5.06e-05,chain 1 PQLPHLQRSPPHGQSF [chain 1 D12H]
18,0,chain 1 PQLPHLQRSPPFGQSF [chain 1 D12F]
19,3.32e-05,chain 1 PQLPHLQRSPPYGQSF [chain 1 D12Y]
20,6.11e-05,chain 1 PQLPHLQRSPPTGQSF [chain 1 D12T]
21,4.27e-05,chain 1 PQLPHLQRSPPPGQSF [chain 1 D12P]

# Variants of: B2
# Assay: as above
# Details: with TNKS ANK (TNKS 12 ANK repeats, residues 174-649); bait immobilised on MaxiSorp plates (10 µg), library pre-cleared on GST, 2 h binding at 4 °C, five washes; one round per day, days 1-4; value from days 2 and 3; keep out of graded; scale: average fractional NGS count over selection days 2 and 3
row,Variant,screen value
1,chain 1 LQQATRQEPQLQEHQG [chain 1 G11L],0
2,chain 1 LQQATRQEPQNQEHQG [chain 1 G11N],5.06e-05
3,chain 1 LQQATRQEPQGQEPQG [chain 1 H14P],6.39e-05
4,chain 1 LQQATRQEPQGQEYQG [chain 1 H14Y],8.4e-05
5,chain 1 LQQATRQEPQGQEDQG [chain 1 H14D],0
6,chain 1 LQQATRQEPQGQETQG [chain 1 H14T],3.21e-05
7,chain 1 LQQATRREPQGQEHQG [chain 1 Q7R],0
8,chain 1 LQQATREEPQGQEHQG [chain 1 Q7E],2.83e-05
9,chain 1 LQQATRDEPQGQEHQG [chain 1 Q7D],2.19e-05
10,chain 1 LQQATRSEPQGQEHQG [chain 1 Q7S],0.000105
11,chain 1 LQQATRIEPQGQEHQG [chain 1 Q7I],0.0001
12,chain 1 RQQATRQEPQGQEHQG [chain 1 L1R],2.19e-05
13,chain 1 LFQATRQEPQGQEHQG [chain 1 Q2F],3.49e-05
14,chain 1 LRQATRQEPQGQEHQG [chain 1 Q2R],0
15,chain 1 LQQATRQEPQGQTHQG [chain 1 E13T],1.94e-05
16,chain 1 LQQATRQEPQGQRHQG [chain 1 E13R],0
17,chain 1 LQQATRQEPQGQPHQG [chain 1 E13P],3.32e-05
18,chain 1 LQQATRQEPQGQWHQG [chain 1 E13W],1.87e-05

row,Variant,screen value
1,chain 1 LQQATRQEPQGQKHQG [chain 1 E13K],0
2,chain 1 LQQATRQEPQGQFHQG [chain 1 E13F],1.87e-05
3,chain 1 LQQATRQEPQGQDHQG [chain 1 E13D],6.42e-05
4,chain 1 LQQATRQEPQGQGHQG [chain 1 E13G],5.19e-05
5,chain 1 LQQATRQIPQGQEHQG [chain 1 E8I],6.96e-05
6,chain 1 LQQATRQNPQGQEHQG [chain 1 E8N],0.000167
7,chain 1 LQQETRQEPQGQEHQG [chain 1 A4E],4.24e-05
8,chain 1 LQQATRQEYQGQEHQG [chain 1 P9Y],0
9,chain 1 LQQATRQELQGQEHQG [chain 1 P9L],0
10,chain 1 LQQATRQEGQGQEHQG [chain 1 P9G],0
11,chain 1 LQQATRQEIQGQEHQG [chain 1 P9I],6.68e-05
12,chain 1 LQQATRQEVQGQEHQG [chain 1 P9V],9.22e-05
13,chain 1 LQQATRQESQGQEHQG [chain 1 P9S],0
14,chain 1 LQIATRQEPQGQEHQG [chain 1 Q3I],0.000108
15,chain 1 LQRATRQEPQGQEHQG [chain 1 Q3R],0
16,chain 1 LQMATRQEPQGQEHQG [chain 1 Q3M],3.03e-05
17,chain 1 LQKATRQEPQGQEHQG [chain 1 Q3K],2.25e-05
18,chain 1 LQEATRQEPQGQEHQG [chain 1 Q3E],9.57e-05

# Other lines, results leading:
row,screen value,Variant
1,0,chain 1 LQQATEQEPQGQEHQG [chain 1 R6E]
2,6.11e-05,chain 1 LQQATSQEPQGQEHQG [chain 1 R6S]
3,0,chain 1 LQQATLQEPQGQEHQG [chain 1 R6L]
4,0,chain 1 LQQATKQEPQGQEHQG [chain 1 R6K]
5,5.01e-05,chain 1 LQQATRQEPQGQEHKG [chain 1 Q15K]
6,2.19e-05,chain 1 LQQATRQEPQGNEHQG [chain 1 Q12N]
7,6.42e-05,chain 1 LQQATRQEPQGVEHQG [chain 1 Q12V]
8,5.26e-05,chain 1 LQQATRQEPQGSEHQG [chain 1 Q12S]
9,5.3e-05,chain 1 LQQATRQEPQGKEHQG [chain 1 Q12K]
10,3.04e-05,chain 1 LQQATRQEPQGGEHQG [chain 1 Q12G]
11,4.24e-05,chain 1 LQQATRQEPQGEEHQG [chain 1 Q12E]
12,0,chain 1 LQQATRQEPQGDEHQG [chain 1 Q12D]
13,9.71e-05,chain 1 LQQATRQEPQGTEHQG [chain 1 Q12T]
14,6.67e-05,chain 1 LQQAKRQEPQGQEHQG [chain 1 T5K]
15,2.97e-05,chain 1 LQQAARQEPQGQEHQG [chain 1 T5A]
16,5.25e-05,chain 1 LQQAPRQEPQGQEHQG [chain 1 T5P]
17,5.19e-05,chain 1 LQQAERQEPQGQEHQG [chain 1 T5E]
18,0,chain 1 LQQARRQEPQGQEHQG [chain 1 T5R]
19,0,chain 1 LQQATRQEPFGQEHQG [chain 1 Q10F]
20,3.04e-05,chain 1 LQQATRQEPTGQEHQG [chain 1 Q10T]
21,2.19e-05,chain 1 LQQATRQEPAGQEHQG [chain 1 Q10A]
22,4.87e-05,chain 1 LQQATRQEPMGQEHQG [chain 1 Q10M]
23,3.15e-05,chain 1 LQQATRQEPRGQEHQG [chain 1 Q10R]
24,0,chain 1 LQQATRQEPKGQEHQG [chain 1 Q10K]
25,6.99e-05,chain 1 LQQATRQEPVGQEHQG [chain 1 Q10V]
26,6.1e-05,chain 1 LQQATRQEPPGQEHQG [chain 1 Q10P]

# Variants of: B3
# Assay: as above
# Details: with MDM2 SWIB (MDM2 SWIB/MDM2 domain, residues 17-125); bait immobilised on MaxiSorp plates (10 µg), library pre-cleared on GST, 2 h binding at 4 °C, five washes; one round per day, days 1-4; value from days 2 and 3; keep out of graded; scale: average fractional NGS count over selection days 2 and 3
row,Variant,screen value
1,chain 1 D5P,0.000202
2,chain 1 A13Q,5.55e-05
3,chain 1 A13T,0.00011
4,chain 1 E3W,0.000218
5,chain 1 E3K,0.000111
6,chain 1 P2F,5.33e-05
7,chain 1 F16D,0
8,chain 1 F16M,4.28e-05

# Other lines, results leading:
row,screen value,Variant
1,0.00282,chain 1 T14R
2,9.9e-05,chain 1 W12K
3,0,chain 1 W12R
4,1.43e-05,chain 1 T10P
5,0.000104,chain 1 V15F
6,8.76e-05,chain 1 V15M
7,5.84e-05,chain 1 S7N
